According to patent US20240270860A1:

Columns and labels:
2LS2…2RPGW = target: T1, 2LS2…2RPGW; experiment: peptide-array ELISA (CYS.S)
T1 sequence (peptide, 2 = Cys(ACM)): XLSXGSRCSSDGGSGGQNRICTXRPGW

…2RPGW [1] = target: T2, …2RPGW; experiment: peptide-array ELISA (CYS.S)
T2 sequence (peptide, 2 = Cys(ACM)): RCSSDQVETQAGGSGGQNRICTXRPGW

…2RP [2] = target: T3, …2RP; experiment: peptide-array ELISA (CYS.S)
T3 sequence (peptide, 2 = Cys(ACM)): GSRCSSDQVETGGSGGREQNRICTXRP

…2R [3] = target: T4, …2R; experiment: peptide-array ELISA (CYS.S)
T4 sequence (peptide, 2 = Cys(ACM)): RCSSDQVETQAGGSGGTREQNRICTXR

…2…2RP = target: T5, …2…2RP; experiment: peptide-array ELISA (CYS.S)
T5 sequence (peptide, 2 = Cys(ACM)): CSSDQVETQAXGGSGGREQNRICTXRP

2…2RPGW = target: T6, 2…2RPGW; experiment: peptide-array ELISA (CYS.S)
T6 sequence (peptide, 2 = Cys(ACM)): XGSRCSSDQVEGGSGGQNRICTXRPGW

2LS2…2RP = target: T7, 2LS2…2RP; experiment: peptide-array ELISA (CYS.S)
T7 sequence (peptide, 2 = Cys(ACM)): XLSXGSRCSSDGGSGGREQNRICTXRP

…2RP [4] = target: T8, …2RP; experiment: peptide-array ELISA (CYS.S); remark: listed apart in the source
T8 sequence (peptide, 2 = Cys(ACM)): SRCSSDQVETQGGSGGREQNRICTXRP

2LS2…2RPG = target: T9, 2LS2…2RPG; experiment: peptide-array ELISA (CYS.S)
T9 sequence (peptide, 2 = Cys(ACM)): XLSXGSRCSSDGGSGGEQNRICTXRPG

…2RPG [5] = target: T10, …2RPG; experiment: peptide-array ELISA (CYS.S)
T10 sequence (peptide, 2 = Cys(ACM)): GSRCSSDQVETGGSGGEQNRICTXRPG

PE2LS2…2RPGW = target: T11, PE2LS2…2RPGW; experiment: peptide-array ELISA (CYS.S)
T11 sequence (peptide, 2 = Cys(ACM)): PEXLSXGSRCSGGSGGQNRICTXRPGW

VPE2LS2…2RP = target: T12, VPE2LS2…2RP; experiment: peptide-array ELISA (CYS.S)
T12 sequence (peptide, 2 = Cys(ACM)): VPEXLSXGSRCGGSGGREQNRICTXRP

PE2LS2…2RPG = target: T13, PE2LS2…2RPG; experiment: peptide-array ELISA (CYS.S)
T13 sequence (peptide, 2 = Cys(ACM)): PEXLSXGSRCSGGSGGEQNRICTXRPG

…2…2R = target: T14, …2…2R; experiment: peptide-array ELISA (CYS.S)
T14 sequence (peptide, 2 = Cys(ACM)): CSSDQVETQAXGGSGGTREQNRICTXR

S2…2RPG = target: T15, S2…2RPG; experiment: peptide-array ELISA (CYS.S)
T15 sequence (peptide, 2 = Cys(ACM)): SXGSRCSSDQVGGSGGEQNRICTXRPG

E2LS2…2RPG = target: T16, E2LS2…2RPG; experiment: peptide-array ELISA (CYS.S)
T16 sequence (peptide, 2 = Cys(ACM)): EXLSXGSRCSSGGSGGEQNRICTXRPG

PE2LS2…2RP = target: T17, PE2LS2…2RP; experiment: peptide-array ELISA (CYS.S)
T17 sequence (peptide, 2 = Cys(ACM)): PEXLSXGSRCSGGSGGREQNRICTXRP

VPE2LS2…2RPGW = target: T18, VPE2LS2…2RPGW; experiment: peptide-array ELISA (CYS.S)
T18 sequence (peptide, 2 = Cys(ACM)): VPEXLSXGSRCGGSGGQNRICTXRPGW

…2R [6] = target: T19, …2R; experiment: peptide-array ELISA (CYS.S); remark: listed apart in the source
T19 sequence (peptide, 2 = Cys(ACM)): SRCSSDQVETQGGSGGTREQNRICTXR

…2RPGW [7] = target: T20, …2RPGW; experiment: peptide-array ELISA (CYS.S); remark: listed apart in the source
T20 sequence (peptide, 2 = Cys(ACM)): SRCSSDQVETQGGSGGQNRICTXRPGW

…2…2RPG = target: T21, …2…2RPG; experiment: peptide-array ELISA (CYS.S)
T21 sequence (peptide, 2 = Cys(ACM)): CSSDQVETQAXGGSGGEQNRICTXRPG

LS2…2RPG = target: T22, LS2…2RPG; experiment: peptide-array ELISA (CYS.S)
T22 sequence (peptide, 2 = Cys(ACM)): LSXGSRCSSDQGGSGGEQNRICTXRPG

…2RPG [8] = target: T23, …2RPG; experiment: peptide-array ELISA (CYS.S); remark: listed apart in the source
T23 sequence (peptide, 2 = Cys(ACM)): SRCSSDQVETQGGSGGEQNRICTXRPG

…2RPGW [9] = target: T24, …2RPGW; experiment: peptide-array ELISA (CYS.S); remark: listed apart in the source
T24 sequence (peptide, 2 = Cys(ACM)): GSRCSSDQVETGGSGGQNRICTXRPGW

…2RPG [10] = target: T25, …2RPG; experiment: peptide-array ELISA (CYS.S); remark: listed apart in the source
T25 sequence (peptide, 2 = Cys(ACM)): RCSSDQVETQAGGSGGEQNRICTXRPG

…2RP [11] = target: T26, …2RP; experiment: peptide-array ELISA (CYS.S); remark: listed apart in the source
T26 sequence (peptide, 2 = Cys(ACM)): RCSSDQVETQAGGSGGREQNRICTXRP

…2…2RPGW = target: T27, …2…2RPGW; experiment: peptide-array ELISA (CYS.S)
T27 sequence (peptide, 2 = Cys(ACM)): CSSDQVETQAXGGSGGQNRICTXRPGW

E2LS2…2RPGW = target: T28, E2LS2…2RPGW; experiment: peptide-array ELISA (CYS.S)
T28 sequence (peptide, 2 = Cys(ACM)): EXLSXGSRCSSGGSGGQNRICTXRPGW

VPE2LS2…2RPG = target: T29, VPE2LS2…2RPG; experiment: peptide-array ELISA (CYS.S)
T29 sequence (peptide, 2 = Cys(ACM)): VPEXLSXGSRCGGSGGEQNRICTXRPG

LS2…2RPGW = target: T30, LS2…2RPGW; experiment: peptide-array ELISA (CYS.S)
T30 sequence (peptide, 2 = Cys(ACM)): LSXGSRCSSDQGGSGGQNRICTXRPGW

2…2RPG = target: T31, 2…2RPG; experiment: peptide-array ELISA (CYS.S)
T31 sequence (peptide, 2 = Cys(ACM)): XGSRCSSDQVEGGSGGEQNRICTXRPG

S2…2RP = target: T32, S2…2RP; experiment: peptide-array ELISA (CYS.S)
T32 sequence (peptide, 2 = Cys(ACM)): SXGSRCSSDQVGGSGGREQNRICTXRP

E2LS2…2RP = target: T33, E2LS2…2RP; experiment: peptide-array ELISA (CYS.S)
T33 sequence (peptide, 2 = Cys(ACM)): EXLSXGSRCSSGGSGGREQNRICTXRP

2…2RP = target: T34, 2…2RP; experiment: peptide-array ELISA (CYS.S)
T34 sequence (peptide, 2 = Cys(ACM)): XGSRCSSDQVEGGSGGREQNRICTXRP

LS2…2RP = target: T35, LS2…2RP; experiment: peptide-array ELISA (CYS.S)
T35 sequence (peptide, 2 = Cys(ACM)): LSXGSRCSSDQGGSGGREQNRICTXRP

S2…2RPGW = target: T36, S2…2RPGW; experiment: peptide-array ELISA (CYS.S)
T36 sequence (peptide, 2 = Cys(ACM)): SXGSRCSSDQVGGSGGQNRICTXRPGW

…2RPGWY = target: T37, …2RPGWY; experiment: peptide-array ELISA (CYS.S) [Continued]
T37 sequence (peptide, 2 = Cys(ACM)): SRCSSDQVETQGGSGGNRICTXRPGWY

E2LS2…2RPGWY = target: T38, E2LS2…2RPGWY; experiment: peptide-array ELISA (CYS.S) [Continued]
T38 sequence (peptide, 2 = Cys(ACM)): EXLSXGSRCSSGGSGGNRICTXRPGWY

[12] = target: T39, KQEGCRL2…; experiment: peptide-array ELISA (CYS.S) [Continued]
T39 sequence (peptide, 2 = Cys(ACM)): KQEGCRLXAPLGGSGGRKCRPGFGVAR

[13] = target: T40, …2…; experiment: peptide-array ELISA (CYS.S) [Continued]
T40 sequence (peptide, 2 = Cys(ACM)): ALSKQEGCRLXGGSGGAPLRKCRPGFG

[14] = target: T41, KQEGCRL2APLGGSGG2…; experiment: peptide-array ELISA (CYS.S) [Continued]
T41 sequence (peptide, 2 = Cys(ACM)): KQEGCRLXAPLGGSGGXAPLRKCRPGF

B1: antagonistic TNFR2 antibody TNFRAB1 (antibody, V domains shown)
VH: EVQLQESGGGLVKPGGSLKLSCAASGFTFSSYVMSWVRQTPEKRLEWVATISSGGSYTYYPDSVKGRFTISRDNAKNTLYLQMSSLRSEDTAMYYCARQRVDGYSSYWYFDVWGAGTAVTVSS
VL: DIVLTQSPAIMSASPGEKVTITCSASSSVYYMYWFQQKPGTSPKLWIYSTSNLASGVPVRFSGSGSGTSYSLTISRMEAEDAATYYCQQRRNYPYTFGGGTKLEIKR
Raw luminescence data (2LS2…2RPGW): 345 | Raw luminescence data (…2RPGW [1]): 507 | Raw luminescence data (…2RP [2]): 166 | Raw luminescence data (…2R [3]): 125 | Raw luminescence data (…2…2RP): 250 | Raw luminescence data (2…2RPGW): 493 | Raw luminescence data (2LS2…2RP): 262 | Raw luminescence data (…2RP [4]): 157 | Raw luminescence data (2LS2…2RPG): 214 | Raw luminescence data (…2RPG [5]): 202 | Raw luminescence data (PE2LS2…2RPGW): 543 | Raw luminescence data (VPE2LS2…2RP): 318 | Raw luminescence data (PE2LS2…2RPG): 229 | Raw luminescence data (…2…2R): 179 | Raw luminescence data (S2…2RPG): 235 | Raw luminescence data (E2LS2…2RPG): 152 | Raw luminescence data (PE2LS2…2RP): 291 | Raw luminescence data (VPE2LS2…2RPGW): 577 | Raw luminescence data (…2R [6]): 177 | Raw luminescence data (…2RPGW [7]): 402 | Raw luminescence data (…2…2RPG): 248 | Raw luminescence data (LS2…2RPG): 244 | Raw luminescence data (…2RPG [8]): 222 | Raw luminescence data (…2RPGW [9]): 466 | Raw luminescence data (…2RPG [10]): 183 | Raw luminescence data (…2RP [11]): 130 | Raw luminescence data (…2…2RPGW): 493 | Raw luminescence data (E2LS2…2RPGW): 482 | Raw luminescence data (VPE2LS2…2RPG): 225 | Raw luminescence data (LS2…2RPGW): 291 | Raw luminescence data (2…2RPG): 221 | Raw luminescence data (S2…2RP): 247 | Raw luminescence data (E2LS2…2RP): 323 | Raw luminescence data (2…2RP): 228 | Raw luminescence data (LS2…2RP): 261 | Raw luminescence data (S2…2RPGW): 364 | Raw luminescence data (…2RPGWY): 482 | Raw luminescence data (E2LS2…2RPGWY): 389 | Raw luminescence data [12]: 430 | Raw luminescence data [13]: 321 | Raw luminescence data [14]: 528
